In patent publication US20250145729A1 (DENALI THERAPEUTICS, published 2025):
Changes are numbered by the printed parent chain. Numbers in names are those of the source.

T1: circularly permuted human TfR apical domain (human)
T1 construct: TfR residues 326-379 stand N-terminal to 194-296, loop 297-325 deleted; also called huTfR Apical Domain
T1 chain: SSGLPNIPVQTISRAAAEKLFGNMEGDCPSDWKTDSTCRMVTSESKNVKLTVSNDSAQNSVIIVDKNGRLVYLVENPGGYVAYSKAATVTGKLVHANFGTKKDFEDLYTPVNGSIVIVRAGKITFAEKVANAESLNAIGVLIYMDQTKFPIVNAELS

T2: circularly permuted cyno TfR apical domain (cynomolgus monkey)
T2 construct: same design as the human construct; also called cyTfR Apical Domain; cynomolgus TfR apical domain
T2 chain: T1 chain with R39K, S45N, N47S, R69G, Y108D, T109S, N153K, E155D

B1: 42.8.96 (Fc fusion)
chain: APEAAGGPSVFLFPPKPKDTLMISRTPEVTCVVVDVSHEDPEVKFNWYVDGVEVHNAKTKPREEQYNSTYRVVSVLTVLHQDWLNGKEYKCKVSNKALGAPIEKTISKAKGQPREPQVYTLPPSRDELTKNQVSLTCLVKGFYPSDIAVEWFSEASKLSNYKTTPPVLDSDGSFFLYSKLTVDKSRWQQGNLFACEVMHEALHNHYTYKLLSLSPGK
notes: bivalent; P329G+LALA
B2: 42.8.213 (Fc fusion)
chain: B1 chain with S153Y, A155D, L158E
notes: bivalent; P329G+LALA
B3: 42.8.199 (Fc fusion)
chain: B1 chain with S153Y, L158E, S159N
notes: bivalent; P329G+LALA
B4: 42.8.189 (Fc fusion)
chain: B1 chain with S153Y, A155G, L158E
notes: bivalent; P329G+LALA
B5: 42.8.112 (Fc fusion)
chain: B1 chain with S153Y, E154G, A155G, S156Q, S159N
notes: bivalent; P329G+LALA
B6: 42.8.152 (Fc fusion)
chain: B1 chain with S153Y, E154D, A155G, L158E, S159T
notes: bivalent; P329G+LALA
B7: 42.8.194 (Fc fusion)
chain: B1 chain with S153Y, S156Q, L158E, S159T
notes: bivalent; P329G+LALA
B8: 42.8.192 (Fc fusion)
chain: B1 chain with S153Y, A155G
notes: bivalent; P329G+LALA
B9: 42.8.137 (Fc fusion)
chain: B1 chain with S153Y, E154G, A155D, S156Q, S159T
notes: bivalent; P329G+LALA
B10: 42.8.168 (Fc fusion)
chain: B1 chain with S153Y, E154D
notes: bivalent; P329G+LALA
B11: 42.8.139 (Fc fusion)
chain: B1 chain with S153Y, E154G, A155D, L158E, S159N
notes: bivalent; P329G+LALA
B12: 42.8.197 (Fc fusion)
chain: B1 chain with S153Y, S156Q, S159T
notes: bivalent; P329G+LALA
B13: 42.8.204 (Fc fusion)
chain: B1 chain with S153Y
notes: bivalent; P329G+LALA
B14: 42.8.143 (Fc fusion)
chain: B1 chain with S153Y, E154G, A155D, S159T
notes: bivalent; P329G+LALA
B15: 42.8.162 (Fc fusion)
chain: B1 chain with S153Y, E154D, S156Q
notes: bivalent; P329G+LALA
B16: 42.8.128 (Fc fusion)
chain: B1 chain with S153Y, E154G, L158E, S159T
notes: bivalent; P329G+LALA
B17: 42.8.157 (Fc fusion)
chain: B1 chain with S153Y, E154D, S156Q, L158E, S159N
notes: bivalent; P329G+LALA
B18: 42.8.127 (Fc fusion)
chain: B1 chain with S153Y, E154G, L158E, S159N
notes: bivalent; P329G+LALA
B19: 42.8.166 (Fc fusion)
chain: B1 chain with S153Y, E154D, S159N
notes: bivalent; P329G+LALA
B20: 42.8.118 (Fc fusion)
chain: B1 chain with S153Y, E154G, A155G, S159N
notes: bivalent; P329G+LALA
B21: 42.8.195 (Fc fusion)
chain: B1 chain with S153Y, S156Q, L158E
notes: bivalent; P329G+LALA
B22: 42.8.201 (Fc fusion)
chain: B1 chain with S153Y, L158E
notes: bivalent; P329G+LALA
B23: 42.8.210 (Fc fusion)
chain: B1 chain with S153Y, A155D, S156Q
notes: bivalent; P329G+LALA
B24: 42.8.173 (Fc fusion)
chain: B1 chain with S153Y, E154D, A155D, S156Q, S159T
notes: bivalent; P329G+LALA
B25: 42.8.163 (Fc fusion)
chain: B1 chain with S153Y, E154D, L158E, S159N
notes: bivalent; P329G+LALA
B26: 42.8.150 (Fc fusion)
chain: B1 chain with S153Y, E154D, A155G, S156Q
notes: bivalent; P329G+LALA
B27: 42.8.167 (Fc fusion)
chain: B1 chain with S153Y, E154D, S159T
notes: bivalent; P329G+LALA
B28: 42.8.156 (Fc fusion)
chain: B1 chain with S153Y, E154D, A155G
notes: bivalent; P329G+LALA
B29: 42.8.182 (Fc fusion)
chain: B1 chain with S153Y, A155G, S156Q, L158E, S159T
notes: bivalent; P329G+LALA
B30: 42.8.144 (Fc fusion)
chain: B1 chain with S153Y, E154G, A155D
notes: bivalent; P329G+LALA
B31: 42.8.174 (Fc fusion)
chain: B1 chain with S153Y, E154D, A155D, S156Q
notes: bivalent; P329G+LALA
B32: 42.8.183 (Fc fusion)
chain: B1 chain with S153Y, A155G, S156Q, L158E
notes: bivalent; P329G+LALA
B33: 42.8.114 (Fc fusion)
chain: B1 chain with S153Y, E154G, A155G, S156Q
notes: bivalent; P329G+LALA
B34: 42.8.187 (Fc fusion)
chain: B1 chain with S153Y, A155G, L158E, S159N
notes: bivalent; P329G+LALA
B35: 42.8.181 (Fc fusion)
chain: B1 chain with S153Y, A155G, S156Q, L158E, S159N
notes: bivalent; P329G+LALA
B36: 42.8.207 (Fc fusion)
chain: B1 chain with S153Y, A155D, S156Q, L158E
notes: bivalent; P329G+LALA
B37: 42.8.151 (Fc fusion)
chain: B1 chain with S153Y, E154D, A155G, L158E, S159N
notes: bivalent; P329G+LALA
B38: 42.8.184 (Fc fusion)
chain: B1 chain with S153Y, A155G, S156Q, S159N
notes: bivalent; P329G+LALA
B39: 42.8.113 (Fc fusion)
chain: B1 chain with S153Y, E154G, A155G, S156Q, S159T
notes: bivalent; P329G+LALA
B40: 42.8.202 (Fc fusion)
chain: B1 chain with S153Y, S159N
notes: bivalent; P329G+LALA
B41: 42.8.159 (Fc fusion)
chain: B1 chain with S153Y, E154D, S156Q, L158E
notes: bivalent; P329G+LALA
B42: 42.8.110 (Fc fusion)
chain: B1 chain with S153Y, E154G, A155G, S156Q, L158E, S159T
notes: bivalent; P329G+LALA
B43: 42.8.185 (Fc fusion)
chain: B1 chain with S153Y, A155G, S156Q, S159T
notes: bivalent; P329G+LALA
B44: 42.8.149 (Fc fusion)
chain: B1 chain with S153Y, E154D, A155G, S156Q, S159T
notes: bivalent; P329G+LALA
B45: 42.8.175 (Fc fusion)
chain: B1 chain with S153Y, E154D, A155D, L158E, S159N
notes: bivalent; P329G+LALA
B46: 42.8.208 (Fc fusion)
chain: B1 chain with S153Y, A155D, S156Q, S159N
notes: bivalent; P329G+LALA
B47: 42.8.109 (Fc fusion)
chain: B1 chain with S153Y, E154G, A155G, S156Q, L158E, S159N
notes: bivalent; P329G+LALA
B48: 42.8.212 (Fc fusion)
chain: B1 chain with S153Y, A155D, L158E, S159T
notes: bivalent; P329G+LALA
B49: 42.8.153 (Fc fusion)
chain: B1 chain with S153Y, E154D, A155G, L158E
notes: bivalent; P329G+LALA

Biological target: T1, circularly permuted human TfR apical …
Assay: SPR, supernatant, anti-Fab capture
Description: (§1) Clones were expressed in HEK293 cells. Supernatants were captured for SPR by GE Healthcare anti-human Fab capture kit and the affinity to human and cyno TfR apical domain was measured (Table 30). The clones in Table 30 were bivalent and each TfR-binding Fc polypeptide also contained P329G and LALA mutations.

Row | Kd | Binder
1 | 9.44 µM | B1
2 | 0.872 µM | B2
3 | 0.869 µM | B3
4 | 1.1 µM | B4
5 | 1.14 µM | B5
6 | 1.02 µM | B6
7 | 1.23 µM | B7
8 | 0.761 µM | B8
9 | 1.18 µM | B9
10 | 0.531 µM | B10
11 | 0.85 µM | B11
12 | 0.755 µM | B12
13 | 0.436 µM | B13
14 | 0.454 µM | B14
15 | 1.19 µM | B15
16 | 0.654 µM | B16
17 | 2.1 µM | B17
18 | 0.633 µM | B18
19 | 0.855 µM | B19
20 | 0.867 µM | B20
21 | 1.23 µM | B21
22 | 0.647 µM | B22
23 | 0.596 µM | B23
24 | 0.603 µM | B24
25 | 1.38 µM | B25

Row | Kd | Binder
26 | 2.65 µM | B26
27 | 0.502 µM | B27
28 | 1.39 µM | B28
29 | 2.29 µM | B29
30 | 0.47 µM | B30
31 | 0.726 µM | B31
32 | 2.33 µM | B32
33 | 1.81 µM | B33
34 | 1.6 µM | B34
35 | 2.78 µM | B35
36 | 1.2 µM | B36
37 | 1.51 µM | B37
38 | 1.68 µM | B38
39 | 1.61 µM | B39
40 | 0.505 µM | B40
41 | 1.32 µM | B41
42 | 1.76 µM | B42
43 | 1.85 µM | B43
44 | 2.38 µM | B44
45 | 1.05 µM | B45
46 | 0.446 µM | B46
47 | 2.02 µM | B47
48 | 0.62 µM | B48
49 | 1.84 µM | B49

Biological target: T2, circularly permuted cyno TfR apical …
Assay: SPR, supernatant, anti-Fab capture
Description: as §1

Row | Kd | Binder
50 | 21.9 µM | B1
51 | 9.79 µM | B2
52 | 8.05 µM | B3
53 | 13.5 µM | B4
54 | 13.3 µM | B5
55 | 10.9 µM | B6
56 | 11.8 µM | B7
57 | 11.3 µM | B8
58 | 12.6 µM | B9
59 | 5.7 µM | B10
60 | 6.1 µM | B11
61 | 11.4 µM | B12
62 | 4.63 µM | B13
63 | 5.18 µM | B14
64 | 23.2 µM | B15
65 | 5.45 µM | B16
66 | 15.5 µM | B17
67 | 3.04 µM | B18
68 | 5 µM | B19
69 | 4.29 µM | B20
70 | 13.3 µM | B21
71 | 4.91 µM | B22
72 | 7.88 µM | B23
73 | 6.72 µM | B24
74 | 7.82 µM | B25

Row | Kd | Binder
75 | 11.8 µM | B26
76 | 6.59 µM | B27
77 | 13.3 µM | B28
78 | 14.4 µM | B29
79 | 3.87 µM | B30
80 | 7.78 µM | B31
81 | 15.1 µM | B32
82 | 18.3 µM | B33
83 | 13.4 µM | B34
84 | 12.1 µM | B35
85 | 13.8 µM | B36
86 | 13.1 µM | B37
87 | 17 µM | B38
88 | 34.3 µM | B39
89 | 6.27 µM | B40
90 | 10.8 µM | B41
91 | 15.8 µM | B42
92 | 13.3 µM | B43
93 | 16 µM | B44
94 | 15.8 µM | B45
95 | 7.41 µM | B46
96 | 13.6 µM | B47
97 | 9.37 µM | B48
98 | 14.5 µM | B49
